Results as given in the supplement of paper PMC9170038.

Test system: MS2 coat protein
Assay: apparent KD of MS2 coat protein; designed switch direction (-1 OFF switch, 1 ON switch): 1; higher = weaker reporter binding
Procedure, shortened: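 Designed RNA switches with common flanks were transcribed on Illumina chips by stalled E. coli RNA polymerase and titrated with SNAP-549-labelled MS2 coat protein, from 0.7 or 1.5 nM doubling to 3 µM, in Tris-HCl pH 7.5 buffer with KCl, MgCl2, BSA, DTT, tRNA and Tween-20. Steps lasted 0.8–1.5 h (lowest) to 10–20 min (highest). Titrations ran without input, with 200 uM small-molecule ligand, or with an oligonucleotide input. Normalised cluster fluorescence was curve-fitted, and apparent KD is the per-design median over clusters.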

[1] = Eterna round: R95, input ligand: FMN 200 uM
[2] = Eterna round: R95, input ligand: microRNA oligo, concentration not stated
[3] = Eterna round: R95, input ligand: none
[4] = input ligand: microRNA oligo, concentration not stated

AUUAUACAUGAGGAUCACCCAUGUCAACAAAGUCGAGGAUAUGGGCAAAUAAAAUAAGAACCAGAAGGCGAAUAAU [salish99_ss1_r3_069] (puzzle: Same State 1)
apparent KD of MS2 coat protein [1]: 51.3 nM
apparent KD of MS2 coat protein [2]: 155 nM
apparent KD of MS2 coat protein [3]: 259 nM

GUGGUCAGACAUGAGGAUCACCCAUGUGGAAUAAAUAAGGAGAAGGAUAUGGAAUAUAGGAUAUACCAGAAGGUUUGGUUGGUG (Eterna round: R96, puzzle: Same State NG 3)
apparent KD of MS2 coat protein [4]: 90.5 nM

AGAUGUUAAUCAGGAUAUGGGCACAUGAGGAUCACCCAUGUAUUUUCGAUGCUAUGUGGAGACGUCUAGAAGGGAUGGCUAACA [SameState NG2 #86] (Eterna round: R96, puzzle: Same State NG 2)
apparent KD of MS2 coat protein (input ligand: FMN 200 uM): 165 nM
apparent KD of MS2 coat protein [4]: 126 nM
apparent KD of MS2 coat protein (input ligand: none): 185 nM

GCAACAGGGUGAGGAUAUCUAUGGACCGACCAUAGAGAAGGCACUGGAAACACAUGAGGAUCACCCAUGUGCCAAAGAACAGUA [Eternabot solution 9] (Eterna round: R96, puzzle: Same State NG 1)
apparent KD of MS2 coat protein (input ligand: FMN 200 uM): 17.5 nM
apparent KD of MS2 coat protein [4]: 22.4 nM
apparent KD of MS2 coat protein (input ligand: none): 28.4 nM

AAUUAAUUAAUACAUGAGGAUCACCCAUGUAAUUAUUAGAUCUAGGAUAUCAGCUCGAAUAGAGCUGAGAAGGAGAUCACAUGU [SSNG3/18-B1] (Eterna round: R96, puzzle: Same State NG 3)
apparent KD of MS2 coat protein [4]: 14.5 nM

GGUCCGGCCUGAGCUGGACCGAAGCAUGUACAUGAGGAUCACCCAUGUCAUGUACAGGCUUCUUGCUCGUCUUGUUG [JL-shm-2.15 JL Mod] (puzzle: Sensor for hsa-mir-208a)
apparent KD of MS2 coat protein [1]: 90.3 nM
apparent KD of MS2 coat protein [2]: 16.6 nM
apparent KD of MS2 coat protein [3]: 219 nM

GGUCCAGCCUGAGCUGGACAAAAGCAUGUACAUGAGGAUCACCCAUGUCAUGUACAAGCUUUUUGCUCGUCUAAAUA [Mat - hsa-mir-208a - 90] (puzzle: Sensor for hsa-mir-208a)
apparent KD of MS2 coat protein [1]: 464 nM
apparent KD of MS2 coat protein [2]: 16.3 nM
apparent KD of MS2 coat protein [3]: 557 nM

AGGAAGGAGACUGAGGAUAUCGUAAGGAGGACAUGAGGAUCACCCAUGUGUAUAGGAUUGGAGGACGAGAAGGCAGAGGAGUGGG [JR_SS2_Sub048] (puzzle: Same State 2)
apparent KD of MS2 coat protein [1]: 29.7 nM
apparent KD of MS2 coat protein [2]: 19.7 nM
apparent KD of MS2 coat protein [3]: 26.5 nM

ACAAGCUUUUCUGUAUUGAAAGGUGGGAUACAUGAGGAUCACCCAUGUUUUUUUGUUUAUAUUUGUCCUCGUCUUAU [JR_SHM208A_Sub087] (puzzle: Sensor for hsa-mir-208a)
apparent KD of MS2 coat protein [1]: 52.7 nM
apparent KD of MS2 coat protein [2]: 33.2 nM
apparent KD of MS2 coat protein [3]: 46.7 nM

AAGUGAAUAGUGAUUACAUGAGGAUCACCCAUGUGGUGGAUGCAGGAUAUUAUUAGACCGUACAAUAAGAAGGGCGUAAUCACC [Eternabot solution 44] (Eterna round: R96, puzzle: Same State NG 3)
apparent KD of MS2 coat protein (input ligand: FMN 200 uM): 226 nM
apparent KD of MS2 coat protein [4]: 270 nM
apparent KD of MS2 coat protein (input ligand: none): 403 nM

UCUUGGUUUUUGCUCGUUUUUUGUGUUGAACAUGAGGAUCACCCAUGUAUUGUACGGUCCAGUUUGAUAAUGGUCCG [JMF 34] (Eterna round: R96, puzzle: Sensor for hsa-mir-208a)
apparent KD of MS2 coat protein (input ligand: FMN 200 uM): 35.2 nM
apparent KD of MS2 coat protein [4]: 13.3 nM
apparent KD of MS2 coat protein (input ligand: none): 40.2 nM

AGUCCAGCCUGAGCUGGACAAAAGCAUGUACAUGAGGAUCACCCAUGUCGUGUACAAGCUUUUUGCUCGUCUUAAUA [Zipper 49 - 4] (puzzle: Sensor for hsa-mir-208a)
apparent KD of MS2 coat protein [1]: 285 nM
apparent KD of MS2 coat protein [2]: 13.5 nM
apparent KD of MS2 coat protein [3]: 311 nM

UGUUCGUAGGAAGGAUAUCGAAAUAAAGGCGUCCACAUGAGGAUCACCCAUGUCGGCGGACCAAACGAGAAGGUCUACCCGGAC [Eternabot solution 12] (Eterna round: R96, puzzle: Same State NG 2)
apparent KD of MS2 coat protein (input ligand: FMN 200 uM): 9.42 nM
apparent KD of MS2 coat protein [4]: 8.37 nM
apparent KD of MS2 coat protein (input ligand: none): 11.6 nM

CGCCGACAUGAGGAUCACCCAUGUGAGCGACUCACAGGAUAUACGCGAUAACAAAGUCGCGUAGAAGGGUGCUCCU [Iscezaso] (puzzle: Same State 1)
apparent KD of MS2 coat protein [1]: 23.4 nM
apparent KD of MS2 coat protein [2]: 19.2 nM
apparent KD of MS2 coat protein [3]: 23.3 nM

AGGCUCAGACUAGGAUAUAUGUGGUCACAUGAGGAUCACCCAUGUCUCGAGCUUCGGCUCGAGGCAUAGAAGGAGUCUGAGCCA [SSNG2/5-D1] (Eterna round: R96, puzzle: Same State NG 2)
apparent KD of MS2 coat protein (input ligand: FMN 200 uM): 459 nM
apparent KD of MS2 coat protein [4]: 14 nM
apparent KD of MS2 coat protein (input ligand: none): 713 nM

GAGUAGUACGGAGGAUAUGGGCAGAACAAGACACCAGAAGGCCGACAUGAGGAUGCUGGACAUGAGGAUCACCCAUGUACCUGA [Same State 1 S3] (Eterna round: R96, puzzle: Same State NG 1)
apparent KD of MS2 coat protein (input ligand: FMN 200 uM): 22.8 nM
apparent KD of MS2 coat protein [4]: 92.6 nM
apparent KD of MS2 coat protein (input ligand: none): 85.4 nM

AUAUAACAUGAGGAUCACCCAUGUCUCUAAAGUCGAGGAUAUGGGCAGGUUAUAUCCGAACCAGAAGGCGGGUUAU [SS1 Teenbexe 8] (puzzle: Same State 1)
apparent KD of MS2 coat protein [1]: 177 nM
apparent KD of MS2 coat protein [2]: 123 nM
apparent KD of MS2 coat protein [3]: 146 nM

AGCCUGAGUCGAGGAUAUUAUGGAUCAAUUAAUACAUGAGGAUCACCCAUGUAAUUAAUUUAACAUGAGAAGGCGACUCAGGCA [SSNG2/10-A1] (Eterna round: R96, puzzle: Same State NG 2)
apparent KD of MS2 coat protein (input ligand: FMN 200 uM): 7.72 nM
apparent KD of MS2 coat protein [4]: 5.43 nM
apparent KD of MS2 coat protein (input ligand: none): 8.66 nM

AACAUGUGGUGUUACAUGAGGAUCACCCAUGUGGCAAAAGCUGAGGAUAUCAUUAAACCCAUGAAUGAGAAGGUAGGAUCACAA [AK SSNG3-V2-20] (Eterna round: R96, puzzle: Same State NG 3)
apparent KD of MS2 coat protein (input ligand: FMN 200 uM): 85.2 nM
apparent KD of MS2 coat protein [4]: 124 nM
apparent KD of MS2 coat protein (input ligand: none): 127 nM

UAGUUGGUGGUAGGAUAUGUAGGAUAUGGCGAGAGCUAAGCUUGGAAGUCACUUCAGCCAGAAGGACAGAAGGACCAGUAGCUU [pwkr ssNG2 2FMN + F9.10] (Eterna round: R96, puzzle: Same State NG 2)
apparent KD of MS2 coat protein (input ligand: FMN 200 uM): 105 nM
apparent KD of MS2 coat protein [4]: 24.2 nM
apparent KD of MS2 coat protein (input ligand: none): 79.1 nM

GUGGUCUGACAUGAGGAUCACCCAUGUGGAAUAAAUACGGGUUAGGAUAUCUUGAGGAUCACCCAAGAGAAGGGAUCGAUUGUU (Eterna round: R96, puzzle: Same State NG 3)
apparent KD of MS2 coat protein [4]: 36.4 nM

AGUCCAGCGAAAGCUGGACAGAAGCAUGUACAUGAGGAUCACCCAUGUUCAUGUACAAGCUUUUUGCUCGUCUUAAA [JL mod - D95 - 1] (puzzle: Sensor for hsa-mir-208a)
apparent KD of MS2 coat protein [1]: 476 nM
apparent KD of MS2 coat protein [2]: 14.9 nM
apparent KD of MS2 coat protein [3]: 418 nM

UUAUUAAUUACAUGAGGAUCACCCAUGUUUUUUUGUCAGAGACAGGAUAUAGAAGUCUCGUUUUACUAGAAGGGUCAUUAUAUG [JR_SSNG3_Sub014] (Eterna round: R96, puzzle: Same State NG 3)
apparent KD of MS2 coat protein (input ligand: FMN 200 uM): 25.6 nM
apparent KD of MS2 coat protein [4]: 19 nM
apparent KD of MS2 coat protein (input ligand: none): 29.7 nM

GCCAACGCAUGAGGAUAUGGCACCUUAUUGGUGCCAGAAGGCAUGUCUAUUGACAUGAGGAUCACCCAUGUAUUAUAGUUGGCA [Fiskers NG1ss - 15] (Eterna round: R96, puzzle: Same State NG 1)
apparent KD of MS2 coat protein (input ligand: FMN 200 uM): 114 nM
apparent KD of MS2 coat protein [4]: 369 nM
apparent KD of MS2 coat protein (input ligand: none): 882 nM

GUAGCAUACCGAGGAUAUUCAUUACAUGAGGAUCACCCAUGUUUAUUAUAGGCCAAAAGGCCUUGGGAGAAGGCGGAAUGCUAC [Xeonanis - 20 Mod12] (Eterna round: R96, puzzle: Same State NG 2)
apparent KD of MS2 coat protein (input ligand: FMN 200 uM): 8.36 nM
apparent KD of MS2 coat protein [4]: 8.47 nM
apparent KD of MS2 coat protein (input ligand: none): 10.7 nM

GGUAUCGGCACAGGAUAUGCUAUCCUUUGGGUAGCAGAAGGGUGAACAUGAGGAUCACCCAUGUAGGUGCCAGGGCGUGAGCCC [JL SSNG1 1.80] (Eterna round: R96, puzzle: Same State NG 1)
apparent KD of MS2 coat protein (input ligand: FMN 200 uM): 213 nM
apparent KD of MS2 coat protein [4]: 56.4 nM
apparent KD of MS2 coat protein (input ligand: none): 149 nM

UUCAAUGGGAUAGGAUAUCCUGCGGCGAGGCGUGGAGAAGGGUCAAGUACAUGAGGAUCACCCAUGUUUCGGAAAUAUUCCGAG [Eternabot solution 29] (Eterna round: R96, puzzle: Same State NG 1)
apparent KD of MS2 coat protein (input ligand: FMN 200 uM): 121 nM
apparent KD of MS2 coat protein [4]: 41.5 nM
apparent KD of MS2 coat protein (input ligand: none): 125 nM

GGUGGCGAAAGCGACAUGAGGAUCACCCAUGUCAUCGGAGGGCAGGAUAUCCGGCGAAAGCCGAAGGAGAAGGGUCGAAAAGAA [ssng3v2 b] (Eterna round: R96, puzzle: Same State NG 3)
apparent KD of MS2 coat protein (input ligand: FMN 200 uM): 62.4 nM
apparent KD of MS2 coat protein [4]: 25.8 nM
apparent KD of MS2 coat protein (input ligand: none): 43.6 nM

CUCCGGAAGCGAGGAUAUGCAGAGGAUCACCCUGCAGAAGGCGCAAAAGCGAGGAUAUGCAGAGGAUCACCCUGCAGAAGGCGC [pwkr ssNG DX.33] (Eterna round: R96, puzzle: Same State NG 1)
apparent KD of MS2 coat protein (input ligand: FMN 200 uM): 10.2 nM
apparent KD of MS2 coat protein [4]: 33.3 nM
apparent KD of MS2 coat protein (input ligand: none): 39.9 nM

UCAAGCGUUUGGCUCGUUUUAUGUGUUGAACAUGAGGAUCACCCAUGUAUUGUACGAUCCAGUUAGAUGGUAUUUUG [JR_SHM208A_Sub040] (puzzle: Sensor for hsa-mir-208a)
apparent KD of MS2 coat protein [1]: 46.9 nM
apparent KD of MS2 coat protein [2]: 104 nM
apparent KD of MS2 coat protein [3]: 67.6 nM

UGGUACAUGGGAGGAUAUCAUGUAGACACAUGAGGAUCACCCAUGUCGAUGGAGACAUCGGAGAUUGAGAAGGCCCAUGUACCU [JL SSNG1 3.55] (Eterna round: R96, puzzle: Same State NG 2)
apparent KD of MS2 coat protein (input ligand: FMN 200 uM): 18.6 nM
apparent KD of MS2 coat protein [4]: 291 nM
apparent KD of MS2 coat protein (input ligand: none): 647 nM
